# Results reported in paper PMC8531759.
# What was measured:
# Assay in all cases: SEC; Sephacryl S-400R in buffer C (20 mM Na-phosphate pH 7.4, 100 mM NaCl, 0.05% dodecyl beta-maltoside); absorbance at 280 nm; apparent molecular weight by comparison to globular protein standards; self-association, hexamer
# [1] = molecular target: AbSGR-h D34N mutant (Anaerolineae bacterium SM23_63)
# [2] = molecular target: AbSGR-h D62N mutant (Anaerolineae bacterium SM23_63)
# [3] = molecular target: AbSGR-h H32A mutant (Anaerolineae bacterium SM23_63)
# [4] = molecular target: AbSGR-h T36A mutant (Anaerolineae bacterium SM23_63)
# [5] = molecular target: Anaerolineae bacterium SM23_63 SGR homolog (AbSGR-h), wild-type (Anaerolineae bacterium SM23_63)
substance,measurement,setting,value
AbSGR-h D34N mutant (enzyme),stoichiometry N,[1],6
AbSGR-h D62N mutant (enzyme),stoichiometry N,[2],6
AbSGR-h H32A mutant (enzyme),stoichiometry N,[3],6
AbSGR-h T36A mutant (enzyme),stoichiometry N,[4],6
"Anaerolineae bacterium SM23_63 SGR homolog (AbSGR-h), wild-type (enzyme)",stoichiometry N,[5],6
